Test results taken from PMC11432006, “Functional Divergence in the Affinity and Stability of Non-Canonical Cysteines and Non-Canonical Disulfide Bonds: Insights from a VHH and VNAR Study” (International Journal of Molecular Sciences, 2024).

Target: T1, GFP-BC2-tag (Homo sapiens (beta-catenin-derived …, UniProt P35222))
T1 construct: also called BC2 peptide
T1 chain: PDRKAAVSHWQQ
Assay: SPR; Biacore 8k; antigen (lysozyme or GFP-BC2-tag) amine-coupled to a CM5 chip, single-domain antibody flowed over at 30 µL/min; running buffer 137 mM NaCl, 2.7 mM KCl, 10 mM Na2HPO4, 1.8 mM KH2PO4 pH 7.5, room temperature; 1:1 Langmuir model
Conditions: both partners purified

binding result: no binding (tested: 5000 nM)
B1: BC2-Nb_(C55A_C110S) (VHH)
VHH: QVQLVESGGGLVQPGGSLTLSCTASGFTLDHYDIGWFRQAPGKEREGVSAINNSDDDTYYADSVKGRFTIFMNNAKDTVYLQMNSLKPEDTAIYYCAEARGSKRGRYEYDFWGQGTQVTVSS
notes: also called BC2-Nb mutant
